From patent publication US20230250158A1

Biological target: SARS-CoV-2 Spike protein on VSV pseudotyped virus particles (Wuhan-1 isolate Spike sequence) (SARS-CoV-2) (UniProt P0DTC2)
Test: cell-based or functional assay

Substance | IC50 in pseudovirus assays [µg/mL]
REGN10933 (antibody) | 0.67
REGN10987 (antibody) | 0.45
